Source: patent US20110059084A1 (BIOTEST, published 2011)

Target: T1, CD4 on primary human peripheral lymphocytes (human, UniProt P01730 26-458)
T1 construct: whole, on cells; also called human lymphocytes
Assay: flow cytometry on human PBMCs (CD3+ lymphocytes), MFI over serial dilutions of BT061
Protocol: Human PBMCs were isolated by density gradient centrifugation and stained with FITC-labelled anti-CD3 antibody (345763; Becton/Dickinson) and serial dilutions of BT061. BT061 binding was detected with an phycoerythrin labelled human IgG antibody (109-116-098; Jackson, Immunoresearch). By flow cytometric analysis the mean fluorescence intensity of CD3+ BT061 binding lymphocytes was determined.

B1: humanized B-F5 H37L/L4M IgG1 (BT061) (antibody, V domains shown)
VH: EEQLVESGGGLVKPGGSLRLSCAASGFSFSDCRMYWLRQAPGKGLEWIGVISVKSENYGANYAESVRGRFTISRDDSKNTVYLQMNSLKTEDTAVYYCSASYYRYDVGAWFAYWGQGTLVTVSS
VL: DIVMTQSPDSLAVSLGERATINCRASKSVSTSGYSYIYWYQQKPGQPPKLLIYLASILESGVPDRFSGSGSGTDFTLTISSLQAEDVAVYYCQHSRELPWTFGQGTKVEIK
notes: also called hB-F5; humanised B-F5
- EC50: < 0.01 µg/mL
